# In the domain aggregation screens of Martell et al. (2025):
# Test: soluble fraction after stress (log2 fold change); higher = more stays soluble; pooled small domains, quantitative proteomics
# Details: stress: 50 degC
# Procedure, shortened: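 Custom libraries of small protein domains were pooled and measured in a high-throughput format, with quantitative proteomics as the read-out. Each library was stressed at 50°C. The value is the log2 fold change in the amount of each protein that stays soluble after stress, used as a measure of aggregation propensity; higher values mean more of the protein stays soluble.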
row,Sequence,soluble fraction (log2)
1,HMQISYDVPNLIGKSYEEVMTDPSILGEHFTVVLGETKTDEDTDAGVILHQDPAADSKVQDEVTPITVTVS,0.42
2,HMAHLSPNDAARLVGVSRPLLNQILDEGRITFFETAGGHRKIKLAAVLAYIKERDEVAAQLAAART,-0.746
3,HMNPYQDSILLWKSFDTPLTNEDFMGLSKEELRIARNEIYAAYGRIFTSQDLIDYFNSKPWYQGTTPA,-0.202
4,HMAITVPEGATLSDAAVLLKQAGAVRSADAFLTRAKVFGGSTPIKAGEFVIPVQASNKDILAILQGGK,0.021
5,HMNFDVETGLPLDSRLVVSGLIQRDGINSLKRYEGMIVYVESEAKNYQLVGGISNTDWAELS,-0.916
6,HMDDFTEVLLQYLKDHDGYSSIHDKTDAETIYNTFGVSKKTFKKAVGDLYKKRLIVLEEEGIRLLG,-0.0665
7,HMELLPAERRQQLVDWFKSNQAGTSQDLARMFGISVSTIRRDLDLLASEGLVKRTHGGAVSIR,0.0027
8,HMSKEIQNILASLPSVDVLLKQIDPIYPHGKAKEATQQVVARLRESVVDGTRKTVIDQKEVIAMIHKQLEE,0.143
9,HMGEPVNSPMPGTILRVEVTQGAAVKEGQLLVVLEAMKMENEILAPKDGTVAQVVVQKGSHVETGSPLIVL,-0.217
10,HMETLKEVPNLKGQQQEVAKQLLINAGLGVGKINIIEDSTIADGEVVTQSILPNTKVKKDTYVGFTVNKAP,0.0969
11,HMGYDLLFQQALGFHEQGRLNEAENIYRQILETAPNNPDILNLLGLIAQQKGLHAQAVDYFYQAIRL,-1.41
12,HMANFGSILRNLRISRDITQSELAAKLGVSRSTVGMYETGAREPDFEAMEAIADTFNVDMDYLVGRSQ,-0.28
13,HMEDIQPSVIFQNNMIDGFKKFGVSFLQNRRNVNVNTLNGLASAGTYPKWQQLLVNKISYIDMLLSTGG,0.0785
14,HMKESRFDYDAVLLYSDKDSITEVKDAVQHLTKEFGSVFTTKKIPEKATFGKLFRIEKGEVNIIEDN,-0.0248
15,HMGRLEVDLVVPYDKYEAMNVIRAEGRILKEDHQGDGAHLKIQINETALWKLKRMLGEGYGQ,-0.157
16,HMFQNPSQVVTTRVGELRAAIPTAQQGRITMGVAVVEDANSVRSVLISTSEPRGYLRPGVTLGPGETMV,0.0203
17,HMNKLKALREEQGLSMMEIAKQLNMPYTTYVNYEKGTREPNSEMLIKFSKFFNVTIDYLIGNSEQKN,-0.502
18,HMGLQLTPVRRRVLEILLHEHRALGAYDILDKLRSEGLGSQPPVAYRALDFLVTHGFAHKIERLNAF,-0.609
19,HMARGRETILLVEDEPAVRGLVHATLRLHGYTVLEARHGIEALLTSTKFVGPIHLLLTDVVMPQMS,0.182

row,Sequence,soluble fraction (log2)
1,HMTNYSFIVNENFNNKRIDQVVANHYPKISRTKVNKIIKNNLLKLNGSTFNDPSAKVKLGDQIEFENL,0.389
2,HMTNVLSEQESKLLERMNKAGLNAEITVKKAAQILNLSESAARNVLNRLVGKGYLTVDTSRLPFLFQR,-0.0793
3,HMASKTGTITATSLNVRSGAATTYSILGTLSNGKTVTIYEESNGWYKINYNGGYGWVSKTYVSTG,-0.435
4,HMDVDKQLDQLLAAMIPDKSLRQTIKTKAFNELVDNELADKDISSWTKQTMDVFMTRAEDMFGAM,-0.136
5,HMTRNGTVTFFNHDKGYGFIKDVLTQESVFVHINSLSEPINEQNKVSFEIEMGPRGSNAINVKLI,-1.97
6,HMGDTIFINNNFYVKHIVEFGETIDIISKIYDVSVNKILETNETSTKLYSGQSLFIPININV,-3.4
7,HMSDTLPRLLWNFQMAKRLDEMNGAEKRRYQLVLIHPQASEKERDYASSFAHQARMLGIEVAIRDS,-0.345
8,HMDPSDQLYTVPPSAEGLRLDLFLVQHVPHMTRALATQLTGAGQVRVNGRRAKKGDRLPSGAQVRLEQAP,-0.256
9,HMTNIDIEKSIKNTITANYDDVLNYHNEDDNKTFASGDSRYSFDYDEKTKTLIVFTNSKVDAVFVDGIKKK,-0.0966
10,HMSEDAVKFRAAVEVENGLAQRNLNKNQAALILGVDRSYFTYIISGKKTPSPDMAKRIGLLLGFDWRVFYA,-2.03
11,HMSTQGRRIEILRHLTQTKKKADVNFVELGRTFGTSDTTIRKDLDWLIKNEYWENHGEWKPTQAGLNMI,0.0347
12,HMDHWQSVNSALELLEVSRRTLYDYISRKKLQTKKEGKYRYVWIDDDVIEEIKTSKSAYIEINN,-2.19
13,HMANPEFAGYINGKPYFGPTHQHRGVKMLGATHTRNPHPLVWDSIAESLANYDSRFRWSGGQIL,-0.429
14,HMNSRAERKEAAKEAIRNLLREGMTFEELTGPWLEKRFAEEPFNRGARSWQMLISEIKEEPEFQHL,0.00166
15,HMSKLSVSSLSSPEVQNQLKAAGIDVNSRQYQVVMKDMMGALDGRAGYTTVSAIKNRMRQYNADGDY,0.474
16,HMKKVSVKPILELRAAGISMRKIETLMHVSRHTISAIYKAADAYSISWDNVKDFDEDKIYEMLFPPTP,-1.94
17,HMVEGMQFDRGYQSPYFVTNAEKMVAELDNPYILLVEKKISSMKELLPVLEPVAQQGKSLLIISEEVEG,-0.0564
18,HMDTRKKLEQIFKLFDKTGTGMVNIDEFKSVLKLFMEEIDEKFGNYFIAYFDENGDGKIEFEEFADVVL,-0.0635
19,HMGQELRFVIQDHEAGIRLDHYLTQQVEGYSRSHLRKLMDQGLITVDGSYRKAGYRLNVGDVIHVVIPPTR,-0.443
